{
  "source": "paper PMC10585395",
  "binders": {"B1": {"name": "von Willebrand factor type A interacting with AAA+ ATPase (ViaA) (natural protein)", "chain": "MLTLDTLNVMLAVSEEGLIEEMIIALLASPQLAVFFEKFPRLKAAITDDVPRWREALRSRLKDARVPPELTEEVMCYQQSQLLSTPQFIVQLPQILDLLHRLNSPWAEQARQLVDANSTITSALHTLFLQRWRLSLIVQATTLNQQLLEEEREQLLSEVQERMTLSGQLEPILADNNTAAGRLWDMSAGQLKRGDYQLIVKYGEFLNEQPELKRLAEQLGRSREAKSIPRNDAQMETFRTMVREPATVPEQVDGLQQSDDILRLLPPELATLGITELEYEFYRRLVEKQLLTYRLHGESWREKVIERPVVHKDYDEQPRGPFIVCVDTSGSMGGFNEQCAKAFCLALMRIALAENRRCYIMLFSTEIVRYELSGPQGIEQAIRFLSQQFRGGTDLASCFRAIMERLQSREWFDADAVVISDFIAQRLPDDVTSKVKELQRVHQHRFHAVAMSAHGKPGIMRIFDHIWRFDTGMRSRLLRRWRR"}},
  "target": "Regulatory ATPase variant A (RavA) (E. coli) (UniProt P31473)",
  "data": [
    {"binder": "B1", "values": [
      {"measurement": "ATPase activity of 0.5 uM RavA with equimolar full-length ViaA (ATP-NADH coupled assay)", "result": 3, "unit": "fold"}
    ]}
  ]
}
